{"source": "paper PMC9427786", "about": "“Structure–function characterization of an aldo–keto reductase involved in detoxification of the mycotoxin, deoxynivalenol” (Scientific Reports, 2022)", "molecules": {"B1": {"name": "DepBRleg (Rhizobium leguminosarum bv. trifolii WSM2297) (protein)", "chain": "MDYRKLGPSGTVVTAYCLGTMTFGAEADEAASHKLLDDYFAWGGNFIDTADVYSAGKSEEIIGRWLKARPTEARQAIVATKGRFPMGNGPNDIGLSRRHLSQALDDSLRRLGLEQIDLYQMHAWDALTPIEETLRFLDDAVSSGKIGYYGFSNYVGWHIAKASEIAKARGYTRPVTLQPQYNLLMRDIELEIVAACQDAGMGLLPWSPLGGGWLTGKYKRDEMPTGATRLGENPNRGGESYAPRNAQERTWAIIGTVEEIAKARGVSMAQVALAWTAARPAITSVILGARTPEQLADNLGAMKVELSGEEMARLNEVSAPQPLDYPYGKGGINQRHRKIEGGR"}}, "key": {"DepBRleg [1]": {"molecular_target": "T1, DepBRleg (Rhizobium leguminosarum, UniProt J0WHR2)", "T1 construct": "gene Rleg4DRAFT_7458; N-terminal His-tag, pET28a (NdeI/HindIII), expressed in E. coli BL21 LOBSTR; about 39 kDa protomer; octamer", "test": "tryptophan fluorescence quenching", "type": "binding", "description": "(§1) tryptophan fluorescence quenching on DepBRleg"}, "DepBRleg [2]": {"molecular_target": "T2, DepBRleg (Rhizobium leguminosarum, UniProt J0WHR2, K217E)", "T2 construct": "gene Rleg4DRAFT_7458; N-terminal His-tag, pET28a (NdeI/HindIII), expressed in E. coli BL21 LOBSTR; about 39 kDa protomer; octamer", "test": "tryptophan fluorescence quenching", "type": "binding", "description": "as §1"}, "DepBRleg [3]": {"molecular_target": "T3, DepBRleg (Rhizobium leguminosarum, UniProt J0WHR2, K217M)", "T3 construct": "gene Rleg4DRAFT_7458; N-terminal His-tag, pET28a (NdeI/HindIII), expressed in E. coli BL21 LOBSTR; about 39 kDa protomer; octamer", "test": "tryptophan fluorescence quenching", "type": "binding", "description": "as §1"}, "DepBRleg [4]": {"molecular_target": "T4, DepBRleg (Rhizobium leguminosarum, UniProt J0WHR2, Q294E)", "T4 construct": "gene Rleg4DRAFT_7458; N-terminal His-tag, pET28a (NdeI/HindIII), expressed in E. coli BL21 LOBSTR; about 39 kDa protomer; octamer", "test": "tryptophan fluorescence quenching", "type": "binding", "description": "as §1"}, "DepBRleg [5]": {"molecular_target": "T5, DepBRleg (Rhizobium leguminosarum, UniProt J0WHR2, R290E)", "T5 construct": "gene Rleg4DRAFT_7458; N-terminal His-tag, pET28a (NdeI/HindIII), expressed in E. coli BL21 LOBSTR; about 39 kDa protomer; octamer", "test": "tryptophan fluorescence quenching", "type": "binding", "description": "as §1"}, "DepBRleg [6]": {"molecular_target": "T6, DepBRleg (Rhizobium leguminosarum, UniProt J0WHR2, R290N)", "T6 construct": "gene Rleg4DRAFT_7458; N-terminal His-tag, pET28a (NdeI/HindIII), expressed in E. coli BL21 LOBSTR; about 39 kDa protomer; octamer", "test": "tryptophan fluorescence quenching", "type": "binding", "description": "as §1"}, "DepBRleg [7]": {"molecular_target": "T1, DepBRleg", "test": "NADPH oxidation at […] nm", "type": "biochemical"}, "[8]": {"system": "O=C1C(=O)c2ccccc2-c2ccccc21", "test": "purified protein", "type": "biochemical, Rhizobium leguminosarum", "conditions": "pH 7.5; 25.0 °C"}, "[9]": {"molecular_target": "DepB from Rhizobium leguminosarum (DepB_(Rleg)) (Rhizobium leguminosarum)", "test": "SEC-MALS; P3000 single-pore GPC/SEC column; 20 mM HEPES, 150 mM NaCl, 0.02% NaN3, pH 7; protein at 0.5 mg/mL"}, "purified protein [10]": {"substrate": "CCCC=O", "test": "purified protein", "type": "biochemical, Rhizobium leguminosarum", "conditions": "1 mM NADPH, 100 mM HEPES pH 7.5, 298 K, about 10% DMSO, 25.0 °C"}, "purified protein [11]": {"substrate": "CCCCCC(=O)/C=C/C=O", "test": "purified protein", "type": "biochemical, Rhizobium leguminosarum", "conditions": "1 mM NADPH, 100 mM HEPES pH 7.5, 298 K, about 10% DMSO, 25.0 °C"}, "purified protein [12]": {"substrate": "CCCCCC=O", "test": "purified protein", "type": "biochemical, Rhizobium leguminosarum", "conditions": "1 mM NADPH, 100 mM HEPES pH 7.5, 298 K, about 10% DMSO, 25.0 °C"}, "purified protein [13]": {"substrate": "NC(=O)C1=CN([C@@H]2O[C@H](COP(=O)(O)OP(=O)(O)OC[C@H]3O[C@@H](n4cnc5c(N)ncnc54)[C@H](OP(=O)(O)O)[C@@H]3O)[C@@H](O)[C@H]2O)C=CC1", "test": "purified protein", "type": "biochemical, Rhizobium leguminosarum", "conditions": "10 mM DL-glyceraldehyde, 100 mM HEPES pH 7.5, 298 K, 25.0 °C, varied: cofactor"}, "purified protein [14]": {"substrate": "O=C1Nc2ccccc2C1=O", "test": "purified protein", "type": "biochemical, Rhizobium leguminosarum", "conditions": "1 mM NADPH, 100 mM HEPES pH 7.5, 298 K, about 10% DMSO, 25.0 °C"}, "purified protein [15]": {"substrate": "O=CC(O)CO", "test": "purified protein", "type": "biochemical, Rhizobium leguminosarum", "conditions": "1 mM NADPH, 100 mM HEPES pH 7.5, 298 K, about 10% DMSO, 25.0 °C"}, "purified protein [16]": {"substrate": "NC(=O)C1=CN([C@@H]2O[C@H](COP(=O)(O)OP(=O)(O)OC[C@H]3O[C@@H](n4cnc5c(N)ncnc54)[C@H](O)[C@@H]3O)[C@@H](O)[C@H]2O)C=CC1", "test": "purified protein", "conditions": "10 mM DL-glyceraldehyde, 100 mM HEPES pH 7.5, 298 K, 25.0 °C, varied: cofactor"}}, "note": "Like-named read-outs stand apart in the source and are kept apart here.", "data": [{"molecule": "NC(=O)C1=CN([C@@H]2O[C@H](COP(=O)(O)OP(=O)(O)OC[C@H]3O[C@@H](n4cnc5c(N)ncnc54)[C@H](OP(=O)(O)O)[C@@H]3O)[C@@H](O)[C@H]2O)C=CC1", "note": "[NADPH]", "values": [{"measurement": "Kd", "setting": "DepBRleg [1]", "value": "11.4 ± 0.84", "unit": "µM"}, {"measurement": "Kd", "setting": "DepBRleg [2]", "value": "68.6 ± 8.7", "unit": "µM"}, {"measurement": "Kd", "setting": "DepBRleg [3]", "value": "74.1 ± 4.6", "unit": "µM"}, {"measurement": "Kd", "setting": "DepBRleg [4]", "value": "97.9 ± 13", "unit": "µM"}, {"measurement": "Kd", "setting": "DepBRleg [5]", "value": "123 ± 6.2", "unit": "µM"}, {"measurement": "Kd", "setting": "DepBRleg [6]", "value": "59.5 ± 4.2", "unit": "µM"}]}, {"molecule": "O=C1C=C2C(=CCOC2O)O1", "note": "(stereo not drawn) [Patulin]", "values": [{"measurement": "Km", "setting": "DepBRleg [7]; read-out: Km,app; 1 mM NADPH, 100 mM HEPES pH 7.5, 298 K, about 10% DMSO", "value": "678 ± 85.5", "unit": "µM"}]}, {"molecule": "C=CC=O", "note": "[Acrolein]", "values": [{"measurement": "Km", "setting": "DepBRleg [7]; 1 mM NADPH, 100 mM HEPES pH 7.5, 298 K, about 10% DMSO; read-out: Km,app", "value": "83.3 ± 6.69", "unit": "µM"}]}, {"molecule": "NC(=O)C1=CN([C@@H]2O[C@H](COP(=O)(O)OP(=O)(O)OC[C@H]3O[C@@H](n4cnc5c(N)ncnc54)[C@H](O)[C@@H]3O)[C@@H](O)[C@H]2O)C=CC1", "note": "[NADH]", "values": [{"measurement": "Kd", "setting": "DepBRleg [1]", "value": "67.3 ± 2.5", "unit": "µM"}, {"measurement": "Kd", "setting": "DepBRleg [4]", "value": "91.2 ± 10", "unit": "µM"}, {"measurement": "Kd", "setting": "DepBRleg [5]", "value": "119 ± 9.8", "unit": "µM"}]}, {"molecule": "DepBRleg (Rhizobium leguminosarum bv. trifolii WSM2297)", "values": [{"measurement": "Km", "setting": "[8]", "value": "68.3 ± 14.3", "unit": "µM"}]}, {"molecule": "DepB from Rhizobium leguminosarum (DepB_(Rleg)) (enzyme)", "values": [{"measurement": "stoichiometry N", "setting": "[9]", "value": 8}]}, {"molecule": "B1", "values": [{"measurement": "Km", "setting": "purified protein [10]", "value": "617 ± 33.5", "unit": "µM"}, {"measurement": "kcat", "setting": "purified protein [10]", "value": "0.410 ± 0.00922", "unit": "s⁻¹"}, {"measurement": "Km", "setting": "purified protein [11]", "value": "1020 ± 136", "unit": "µM"}, {"measurement": "kcat", "setting": "purified protein [11]", "value": "7.90 ± 0.678", "unit": "s⁻¹"}, {"measurement": "Km", "setting": "purified protein [12]", "value": "1230 ± 231", "unit": "µM"}, {"measurement": "kcat", "setting": "purified protein [12]", "value": "0.303 ± 0.0269", "unit": "s⁻¹"}, {"measurement": "Km", "setting": "purified protein [13]", "value": "15.2 ± 1.41", "unit": "µM"}, {"measurement": "kcat", "setting": "purified protein [13]", "value": "0.337 ± 0.00757", "unit": "s⁻¹"}, {"measurement": "Km", "setting": "purified protein [14]", "value": "1780 ± 410", "unit": "µM"}, {"measurement": "kcat", "setting": "purified protein [14]", "value": "6.43 ± 0.920", "unit": "s⁻¹"}, {"measurement": "Km", "setting": "purified protein [15]", "value": "3.89 ± 0.516", "unit": "mM"}, {"measurement": "kcat", "setting": "purified protein [15]", "value": "0.782 ± 0.0803", "unit": "s⁻¹"}, {"measurement": "Km", "setting": "purified protein [16]", "value": "1560 ± 399", "unit": "µM"}, {"measurement": "kcat", "setting": "purified protein [16]", "value": "0.0242 ± 0.00344", "unit": "s⁻¹"}]}]}
